Assay results reported in the supplement of paper PMC9112550, “Optimization of the antimicrobial peptide Bac7 by deep mutational scanning” (BMC Biology, 2022).

Tested on: Escherichia coli TOP10
Experiment: shrunken log2 fold change of peptide-encoding DNA abundance (4.5 h post-induction vs induction); higher = less antimicrobial activity (less host growth inhibition)
Settings: time post-induction: 4.5 h; library: site-saturation at positions 5, 18, 19, 20
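Note: peptides expressed intracellularly from a pBAD plasmid library in pooled LB shake-flask culture, induced with 0.3% L-arabinose, DNA abundance read by NGS, three biological replicates, DESeq2 with apeglm shrinkage.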

Row | Sequence | shrunken log2 fold change
1 | RRIRTRPPRLPRPRPRPVFGPRP | 0.227
2 | RRIRYRPPRLPRPRPRPITLPRP | -0.323
3 | RRIRKRPPRLPRPRPRPNDAPRP | 0.0832
4 | RRIRIRPPRLPRPRPRPRNCPRP | -0.271
5 | RRIRIRPPRLPRPRPRPHKSPRP | -1.18
6 | RRIRPRPPRLPRPRPRPMTQPRP | 0.272
7 | RRIRLRPPRLPRPRPRPFIIPRP | -0.271
8 | RRIRRRPPRLPRPRPRPDAPPRP | 0.888
9 | RRIRWRPPRLPRPRPRPGHTPRP | 0.0581
10 | RRIRCRPPRLPRPRPRPMSEPRP | -0.0508
11 | RRIRFRPPRLPRPRPRPRITPRP | -0.657
12 | RRIRIRPPRLPRPRPRPWFRPRP | -0.129
13 | RRIRRRPPRLPRPRPRPDGGPRP | 0.149
14 | RRIRTRPPRLPRPRPRPMHTPRP | 0.0134
15 | RRIRWRPPRLPRPRPRPVYIPRP | -0.0308
16 | RRIRERPPRLPRPRPRPRGQPRP | 0.837
17 | RRIRFRPPRLPRPRPRPDWFPRP | -0.32
18 | RRIRTRPPRLPRPRPRPPHMPRP | -0.101
19 | RRIRQRPPRLPRPRPRPHGFPRP | -0.0134
20 | RRIRWRPPRLPRPRPRPPRNPRP | 0.794
21 | RRIRPRPPRLPRPRPRPIYDPRP | -0.251
22 | RRIRNRPPRLPRPRPRPKGDPRP | 0.0687
23 | RRIRERPPRLPRPRPRPAKPPRP | -0.248
24 | RRIRHRPPRLPRPRPRPVNFPRP | -0.636
25 | RRIRFRPPRLPRPRPRPGGNPRP | 0.149

Row | Sequence | shrunken log2 fold change
26 | RRIRNRPPRLPRPRPRPFQEPRP | -0.0276
27 | RRIRNRPPRLPRPRPRPFADPRP | 0.0675
28 | RRIRTRPPRLPRPRPRPWDEPRP | -0.167
29 | RRIRDRPPRLPRPRPRPKLFPRP | 0.168
30 | RRIRVRPPRLPRPRPRPNMWPRP | -0.327
31 | RRIRQRPPRLPRPRPRPCTIPRP | -0.00957
32 | RRIRYRPPRLPRPRPRPPMQPRP | -0.0424
33 | RRIRDRPPRLPRPRPRPYHQPRP | -0.0205
34 | RRIRSRPPRLPRPRPRPTFVPRP | -0.15
35 | RRIRDRPPRLPRPRPRPCDRPRP | -0.0944
36 | RRIRPRPPRLPRPRPRPPKGPRP | 0.308
37 | RRIRLRPPRLPRPRPRPKWDPRP | 0.184
38 | RRIRCRPPRLPRPRPRPLNPPRP | -0.185
39 | RRIRNRPPRLPRPRPRPLMPPRP | -0.173
40 | RRIRTRPPRLPRPRPRPATRPRP | 0.0996
41 | RRIRQRPPRLPRPRPRPLNWPRP | -0.133
42 | RRIRRRPPRLPRPRPRPFVDPRP | 0.243
43 | RRIRMRPPRLPRPRPRPETRPRP | 0.925
44 | RRIRRRPPRLPRPRPRPHASPRP | 0.201
45 | RRIRNRPPRLPRPRPRPDERPRP | 0.0408
46 | RRIRSRPPRLPRPRPRPRTTPRP | 0.318
47 | RRIRRRPPRLPRPRPRPSFPPRP | 0.0188
48 | RRIRSRPPRLPRPRPRPEDRPRP | 0.972
49 | RRIRQRPPRLPRPRPRPNQYPRP | -0.529
50 | RRIRDRPPRLPRPRPRPTPDPRP | 0.536

Row | Sequence | shrunken log2 fold change
51 | RRIRIRPPRLPRPRPRPSSRPRP | -0.538
52 | RRIRRRPPRLPRPRPRPPNYPRP | 0.0616
53 | RRIRMRPPRLPRPRPRPQMYPRP | -0.24
54 | RRIRWRPPRLPRPRPRPRQNPRP | 0.448
55 | RRIRRRPPRLPRPRPRPAVTPRP | -0.111
56 | RRIRPRPPRLPRPRPRPTDIPRP | -0.241
57 | RRIRQRPPRLPRPRPRPIHDPRP | 0.0242
58 | RRIRNRPPRLPRPRPRPCLYPRP | 0.0767
59 | RRIRIRPPRLPRPRPRPLSNPRP | -0.893
60 | RRIRYRPPRLPRPRPRPGCNPRP | -0.172
61 | RRIRMRPPRLPRPRPRPAWCPRP | 3.93
62 | RRIRYRPPRLPRPRPRPQFRPRP | -0.18
63 | RRIRMRPPRLPRPRPRPKSQPRP | 2.06
64 | RRIRLRPPRLPRPRPRPHFYPRP | -0.303
65 | RRIRERPPRLPRPRPRPDLKPRP | -0.108
66 | RRIRWRPPRLPRPRPRPCSTPRP | 0.137
67 | RRIRQRPPRLPRPRPRPSFNPRP | -0.48
68 | RRIRFRPPRLPRPRPRPMKKPRP | -0.0398
69 | RRIRPRPPRLPRPRPRPNCCPRP | 0.187
70 | RRIRSRPPRLPRPRPRPTSYPRP | -0.0485
71 | RRIRTRPPRLPRPRPRPDLFPRP | -0.0784
72 | RRIRRRPPRLPRPRPRPYGGPRP | -0.326
73 | RRIRRRPPRLPRPRPRPHQMPRP | 0.19
74 | RRIRSRPPRLPRPRPRPFMAPRP | -0.497
75 | RRIRVRPPRLPRPRPRPNCSPRP | 0.0892

Row | Sequence | shrunken log2 fold change
76 | RRIRKRPPRLPRPRPRPVMAPRP | 0.588
77 | RRIRYRPPRLPRPRPRPPCYPRP | -0.378
78 | RRIRCRPPRLPRPRPRPQTRPRP | 0.471
79 | RRIRARPPRLPRPRPRPSGEPRP | 0.65
80 | RRIRPRPPRLPRPRPRPRDPPRP | 0.695
81 | RRIRFRPPRLPRPRPRPRKFPRP | 0.171
82 | RRIRHRPPRLPRPRPRPWQHPRP | -0.0597
83 | RRIRFRPPRLPRPRPRPIYMPRP | -0.878
84 | RRIRYRPPRLPRPRPRPGKAPRP | -0.00206
85 | RRIRWRPPRLPRPRPRPNLYPRP | -0.169
86 | RRIRQRPPRLPRPRPRPCQFPRP | 0.0287
87 | RRIRHRPPRLPRPRPRPMPVPRP | -0.0266
88 | RRIRFRPPRLPRPRPRPSVDPRP | -0.011
89 | RRIRYRPPRLPRPRPRPQFCPRP | -0.0677
90 | RRIRQRPPRLPRPRPRPRMWPRP | -0.429
91 | RRIRYRPPRLPRPRPRPNGTPRP | -0.424
92 | RRIRTRPPRLPRPRPRPKAEPRP | -0.000916
93 | RRIRFRPPRLPRPRPRPKHAPRP | 0.416
94 | RRIRFRPPRLPRPRPRPIRKPRP | -0.0472
95 | RRIRKRPPRLPRPRPRPKGLPRP | -0.00973
96 | RRIRIRPPRLPRPRPRPPQKPRP | 0.0534
97 | RRIRSRPPRLPRPRPRPFIWPRP | -0.297
98 | RRIRARPPRLPRPRPRPCGYPRP | 0.0562
99 | RRIRDRPPRLPRPRPRPVRDPRP | 0.203
100 | RRIRYRPPRLPRPRPRPTGCPRP | -0.0275

Row | Sequence | shrunken log2 fold change
101 | RRIRFRPPRLPRPRPRPNKIPRP | -0.538
102 | RRIRYRPPRLPRPRPRPPSGPRP | 0.0974
103 | RRIRCRPPRLPRPRPRPCIKPRP | -0.426
104 | RRIRTRPPRLPRPRPRPRCAPRP | 0.0538
105 | RRIRHRPPRLPRPRPRPHPCPRP | -0.612
106 | RRIRKRPPRLPRPRPRPKDMPRP | 0.139
107 | RRIRARPPRLPRPRPRPTAGPRP | 0.902
108 | RRIRCRPPRLPRPRPRPTGPPRP | 0.669
109 | RRIRGRPPRLPRPRPRPIDYPRP | -0.0822
110 | RRIRQRPPRLPRPRPRPHTAPRP | -0.926
111 | RRIRLRPPRLPRPRPRPFNWPRP | -0.223
112 | RRIRSRPPRLPRPRPRPPWLPRP | 0.462
113 | RRIRWRPPRLPRPRPRPCHTPRP | -0.53
114 | RRIRCRPPRLPRPRPRPYQSPRP | -0.307
115 | RRIRVRPPRLPRPRPRPDDNPRP | -0.0966
116 | RRIRYRPPRLPRPRPRPPQVPRP | -0.0496
117 | RRIRDRPPRLPRPRPRPHFFPRP | 0.152
118 | RRIRFRPPRLPRPRPRPGTCPRP | -0.161
119 | RRIRERPPRLPRPRPRPSYEPRP | -0.499
120 | RRIRERPPRLPRPRPRPPVQPRP | -0.122
121 | RRIRWRPPRLPRPRPRPQRIPRP | 0.107
122 | RRIRARPPRLPRPRPRPTHAPRP | 0.528
123 | RRIRQRPPRLPRPRPRPAPMPRP | 0.538
124 | RRIRSRPPRLPRPRPRPKIMPRP | -0.246
125 | RRIRVRPPRLPRPRPRPMDHPRP | -0.426

Row | Sequence | shrunken log2 fold change
126 | RRIRFRPPRLPRPRPRPPGGPRP | 0.782
127 | RRIRQRPPRLPRPRPRPTCQPRP | -0.125
128 | RRIRKRPPRLPRPRPRPIQDPRP | -0.106
129 | RRIRYRPPRLPRPRPRPINAPRP | -0.469
130 | RRIRKRPPRLPRPRPRPHRQPRP | 0.277
131 | RRIRNRPPRLPRPRPRPHFNPRP | -0.608
132 | RRIRSRPPRLPRPRPRPPTPPRP | 0.63
133 | RRIRARPPRLPRPRPRPLESPRP | 0.486
134 | RRIRMRPPRLPRPRPRPFRYPRP | 0.0191
135 | RRIRCRPPRLPRPRPRPWYFPRP | -0.264
136 | RRIRSRPPRLPRPRPRPDMVPRP | -0.00858
137 | RRIRRRPPRLPRPRPRPFQYPRP | -0.0414
138 | RRIRFRPPRLPRPRPRPTCVPRP | -0.0732
139 | RRIRNRPPRLPRPRPRPMRIPRP | 0.134
140 | RRIRYRPPRLPRPRPRPEGLPRP | -0.0136
141 | RRIRMRPPRLPRPRPRPHHMPRP | -0.321
142 | RRIRPRPPRLPRPRPRPTFMPRP | 0.0861
143 | RRIRQRPPRLPRPRPRPESHPRP | -0.159
144 | RRIRARPPRLPRPRPRPPHYPRP | 0.857
145 | RRIRTRPPRLPRPRPRPQFNPRP | -0.226
146 | RRIRDRPPRLPRPRPRPWARPRP | -0.0626
147 | RRIRGRPPRLPRPRPRPYIFPRP | -0.135
148 | RRIRCRPPRLPRPRPRPFNAPRP | -0.521
149 | RRIRSRPPRLPRPRPRPMWKPRP | -0.101
150 | RRIRKRPPRLPRPRPRPFYNPRP | -0.695
